Experimental data from publication doi:10.1101/2020.05.18.102780.

Biological target: Ktedonobacter racemifer acyl carrier protein (KrACP) (Ktedonobacter racemifer DSM 44963)
Assay: SDS-PAGE

Ktedonobacter racemifer acyl carrier protein (KrACP) (natural protein)
stoichiometry N: 2
